{"source": "paper PMC2230226", "key": {"[1]": {"biological_target": "recombinant tryptase (UniProt Q15661)", "sequence (Q15661 19-275)": "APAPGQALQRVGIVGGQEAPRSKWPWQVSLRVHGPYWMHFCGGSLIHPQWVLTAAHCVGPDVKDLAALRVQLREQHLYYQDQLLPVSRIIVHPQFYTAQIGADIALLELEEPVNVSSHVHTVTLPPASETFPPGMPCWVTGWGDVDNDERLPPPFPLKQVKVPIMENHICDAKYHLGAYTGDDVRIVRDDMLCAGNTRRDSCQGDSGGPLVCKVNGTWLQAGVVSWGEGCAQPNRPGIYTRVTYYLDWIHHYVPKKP"}, "[2]": {"biological_target": "recombinant human FVIIa (NovoSeven) (human) (UniProt P08709)", "sequence (P08709 61-212, chain 1 of 2)": "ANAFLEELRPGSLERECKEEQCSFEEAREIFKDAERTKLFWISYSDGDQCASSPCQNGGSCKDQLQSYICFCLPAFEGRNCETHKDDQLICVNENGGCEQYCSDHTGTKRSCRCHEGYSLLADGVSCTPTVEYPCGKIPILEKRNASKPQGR", "sequence (P08709 213-466, chain 2 of 2)": "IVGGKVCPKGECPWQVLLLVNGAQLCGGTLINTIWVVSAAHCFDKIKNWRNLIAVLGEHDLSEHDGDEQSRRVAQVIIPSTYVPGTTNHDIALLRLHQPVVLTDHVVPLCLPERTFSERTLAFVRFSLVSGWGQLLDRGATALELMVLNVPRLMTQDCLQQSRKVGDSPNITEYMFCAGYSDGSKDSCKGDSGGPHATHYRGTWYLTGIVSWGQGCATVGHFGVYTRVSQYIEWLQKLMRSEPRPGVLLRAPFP"}, "[3]": {"biological_target": "human α-FXIIa (human) (UniProt P00748)", "sequence (P00748 20-372, chain 1 of 2)": "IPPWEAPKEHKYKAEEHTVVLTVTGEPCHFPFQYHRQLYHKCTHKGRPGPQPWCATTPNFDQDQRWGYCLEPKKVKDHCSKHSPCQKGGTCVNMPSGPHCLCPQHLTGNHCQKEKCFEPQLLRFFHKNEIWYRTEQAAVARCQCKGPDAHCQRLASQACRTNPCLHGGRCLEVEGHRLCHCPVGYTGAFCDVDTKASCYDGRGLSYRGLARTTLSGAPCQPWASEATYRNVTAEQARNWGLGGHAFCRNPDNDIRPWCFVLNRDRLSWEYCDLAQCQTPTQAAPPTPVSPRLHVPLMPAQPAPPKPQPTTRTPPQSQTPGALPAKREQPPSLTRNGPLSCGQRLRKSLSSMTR", "sequence (P00748 373-615, chain 2 of 2)": "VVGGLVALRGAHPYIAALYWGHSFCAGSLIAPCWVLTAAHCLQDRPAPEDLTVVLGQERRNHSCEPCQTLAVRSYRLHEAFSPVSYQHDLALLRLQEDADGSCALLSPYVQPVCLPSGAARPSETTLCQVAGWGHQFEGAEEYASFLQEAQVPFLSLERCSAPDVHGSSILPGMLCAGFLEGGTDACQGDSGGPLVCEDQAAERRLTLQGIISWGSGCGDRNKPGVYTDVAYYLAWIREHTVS"}, "[4]": {"biological_target": "bovine pancreatic trypsin (bovine)"}, "[5]": {"biological_target": "urokinase (uPA) (UniProt P00749)"}, "[6]": {"biological_target": "human plasma kallikrein (human) (UniProt P03952)", "sequence (P03952 20-390, chain 1 of 2)": "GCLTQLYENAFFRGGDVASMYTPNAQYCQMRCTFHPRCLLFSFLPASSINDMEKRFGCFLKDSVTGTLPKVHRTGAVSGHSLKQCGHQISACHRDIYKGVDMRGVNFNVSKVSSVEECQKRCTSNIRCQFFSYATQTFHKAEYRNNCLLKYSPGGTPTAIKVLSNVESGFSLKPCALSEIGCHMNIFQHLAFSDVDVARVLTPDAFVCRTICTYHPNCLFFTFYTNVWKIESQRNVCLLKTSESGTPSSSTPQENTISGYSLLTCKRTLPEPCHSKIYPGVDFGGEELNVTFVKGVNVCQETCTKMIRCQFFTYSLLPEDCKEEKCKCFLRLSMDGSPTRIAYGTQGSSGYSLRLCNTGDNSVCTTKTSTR", "sequence (P03952 391-638, chain 2 of 2)": "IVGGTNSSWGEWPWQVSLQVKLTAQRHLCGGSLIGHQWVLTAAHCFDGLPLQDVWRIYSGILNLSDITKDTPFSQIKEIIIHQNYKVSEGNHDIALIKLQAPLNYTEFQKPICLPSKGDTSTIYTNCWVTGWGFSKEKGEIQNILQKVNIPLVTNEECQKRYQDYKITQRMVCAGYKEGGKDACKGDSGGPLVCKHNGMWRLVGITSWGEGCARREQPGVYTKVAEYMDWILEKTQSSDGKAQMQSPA"}, "[7]": {"biological_target": "bovine factor Xa (bovine)"}, "[8]": {"biological_target": "human plasmin (human)"}, "[9]": {"biological_target": "recombinant sc-tPA (UniProt P00750)", "sequence (P00750 36-562)": "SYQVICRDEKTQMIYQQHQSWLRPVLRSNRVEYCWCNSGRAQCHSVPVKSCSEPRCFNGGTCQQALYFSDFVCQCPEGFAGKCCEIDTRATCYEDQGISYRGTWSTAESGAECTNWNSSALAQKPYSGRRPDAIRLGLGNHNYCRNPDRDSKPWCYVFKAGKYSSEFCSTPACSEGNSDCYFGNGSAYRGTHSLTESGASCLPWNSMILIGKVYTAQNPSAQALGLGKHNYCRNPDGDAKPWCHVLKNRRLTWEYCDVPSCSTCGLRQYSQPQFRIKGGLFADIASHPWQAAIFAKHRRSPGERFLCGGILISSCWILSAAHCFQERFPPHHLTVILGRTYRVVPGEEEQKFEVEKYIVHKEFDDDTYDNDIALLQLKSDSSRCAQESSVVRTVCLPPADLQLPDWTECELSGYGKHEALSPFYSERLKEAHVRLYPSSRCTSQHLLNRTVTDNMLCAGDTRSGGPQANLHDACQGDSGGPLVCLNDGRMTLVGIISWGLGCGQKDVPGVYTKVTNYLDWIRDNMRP"}, "[10]": {"biological_target": "bovine pancreatic trypsin (bovine)", "experiment": "native gel or EMSA; 500 ng human thrombin or bovine trypsin in 25 mM Tris-HCl pH 8.0, 190 mM glycine, mixed with increasing boophilin, 15 min at room temperature; 10% Tris-glycine polyacrylamide gel at 4°C, silver-stained"}, "[11]": {"biological_target": "human α-thrombin (human)", "experiment": "native gel or EMSA; 500 ng human thrombin or bovine trypsin in 25 mM Tris-HCl pH 8.0, 190 mM glycine, mixed with increasing boophilin, 15 min at room temperature; 10% Tris-glycine polyacrylamide gel at 4°C, silver-stained"}, "[12]": {"biological_target": "bovine α-thrombin (bovine)", "experiment": "enzyme inhibition (amidolytic activity, chromogenic substrate); Ki of thrombin inhibition; tight-binding kinetics assumed, apparent (native inhibitor); the conditions of the Ki determination itself are not told"}, "[13]": {"biological_target": "bovine pancreatic trypsin (bovine)", "experiment": "enzyme inhibition kinetics (progress curves, chromogenic substrate); slow-binding inhibition; second-order rate constant k2/Ki from kobs; 0.2 mM Chromozym TH (trypsin, 6.25 ng/ml) or Chromozym PL (plasmin, 12.5 µg/ml); boophilin 0.1-0.65 µM (trypsin) or 0.04-0.4 µM (plasmin); 45 min at 37°C"}, "[14]": {"biological_target": "human plasmin (human)", "experiment": "enzyme inhibition kinetics (progress curves, chromogenic substrate); slow-binding inhibition; second-order rate constant k2/Ki from kobs; 0.2 mM Chromozym TH (trypsin, 6.25 ng/ml) or Chromozym PL (plasmin, 12.5 µg/ml); boophilin 0.1-0.65 µM (trypsin) or 0.04-0.4 µM (plasmin); 45 min at 37°C"}}}
{"substance": "isolated C-terminal boophilin domain (domain or fragment)", "values": [{"measurement": "Inhibition of amidolytic activity (%), recombinant inhibitor (C-terminal domain) 15.2 µM, substrate Chromozym TH", "setting": "[1]", "result": 8, "unit": "%"}, {"measurement": "Inhibition of amidolytic activity (%), recombinant inhibitor (C-terminal domain) 15.2 µM, substrate Chromozym tPA", "setting": "[2]", "result": 0, "unit": "%"}, {"measurement": "Inhibition of amidolytic activity (%), recombinant inhibitor (C-terminal domain) 15.2 µM, substrate Pefachrome FXIIa", "setting": "[3]", "result": 0, "unit": "%"}, {"measurement": "Inhibition of amidolytic activity (%), recombinant inhibitor (C-terminal domain) 15.2 µM, substrate Pefachrome tPA", "setting": "[4]", "result": 80, "unit": "%"}, {"measurement": "Inhibition of amidolytic activity (%), recombinant inhibitor (C-terminal domain) 15.2 µM, substrate Pefachrome uPA", "setting": "[5]", "result": 17, "unit": "%"}, {"measurement": "Inhibition of amidolytic activity (%), recombinant inhibitor (C-terminal domain) 15.2 µM, substrate Chromozym PK", "setting": "[6]", "result": 0, "unit": "%"}, {"measurement": "Inhibition of amidolytic activity (%), recombinant inhibitor (C-terminal domain) 15.2 µM, substrate Chromozym X", "setting": "[7]", "result": 0, "unit": "%"}, {"measurement": "Inhibition of amidolytic activity (%), recombinant inhibitor (C-terminal domain) 15.2 µM, substrate Chromozym PL", "setting": "[8]", "result": 25, "unit": "%"}, {"measurement": "Inhibition of amidolytic activity (%), recombinant inhibitor (C-terminal domain) 15.2 µM, substrate Pefachrome tPA", "setting": "[9]", "result": 2, "unit": "%"}]}
{"substance": "native boophilin (natural protein)", "values": [{"measurement": "stoichiometry N", "setting": "[10]", "result": 1}, {"measurement": "stoichiometry N", "setting": "[11]", "result": 1}, {"measurement": "Inhibition of amidolytic activity (%), native inhibitor 3.53 µM, substrate Pefachrome tPA", "setting": "[4]", "result": 97, "unit": "%"}, {"measurement": "Inhibition of amidolytic activity (%), native inhibitor 3.53 µM, substrate Pefachrome uPA", "setting": "[5]", "result": 16, "unit": "%"}, {"measurement": "Inhibition of amidolytic activity (%), native inhibitor 3.53 µM, substrate Chromozym PK", "setting": "[6]", "result": 66, "unit": "%"}, {"measurement": "Inhibition of amidolytic activity (%), native inhibitor 3.53 µM, substrate Chromozym X", "setting": "[7]", "result": 10, "unit": "%"}, {"measurement": "Inhibition of amidolytic activity (%), native inhibitor 3.53 µM, substrate Chromozym PL", "setting": "[8]", "result": 87, "unit": "%"}, {"measurement": "Ki", "setting": "[12]", "result": 1.8, "unit": "nM"}, {"measurement": "second order rate constant k2/Ki", "setting": "[13]", "result": 308000, "unit": "M⁻¹ s⁻¹"}]}
{"substance": "recombinant boophilin (full-length mature protein, variant H2) (from UniProt Q8WPI2 16-142) (natural protein)", "values": [{"measurement": "Inhibition of amidolytic activity (%), recombinant inhibitor (full-length) 2.36 µM, substrate Pefachrome tPA", "setting": "[4]", "result": 98, "unit": "%"}, {"measurement": "Inhibition of amidolytic activity (%), recombinant inhibitor (full-length) 2.36 µM, substrate Chromozym PL", "setting": "[8]", "result": 95, "unit": "%"}, {"measurement": "Ki", "setting": "[12]", "result": 3.4, "unit": "nM"}, {"measurement": "second order rate constant k2/Ki", "setting": "[13]", "result": 384000, "unit": "M⁻¹ s⁻¹"}, {"measurement": "second order rate constant k2/Ki", "setting": "[14]", "result": 259000, "unit": "M⁻¹ s⁻¹"}]}
